Test results: patent US20110098217A1 (INDIANA UNIVERSITY RESEARCH AND TECHNOLOGY, published 2011)
Read-outs that look alike come from different tables or passages of the source. Bridge positions count the residues as written; N and C are the ends. Square brackets hold non-standard residues; d marks the D form. Ends that are not written are not given here. * marks the point of attachment. COCH2CH2S‑Chol = CC(C)CCC[C@@H](C)[C@H]1CC[C@H]2[C@@H]3CC=C4C[C@@H](SCCC(=O)*)CC[C@]4(C)[C@H]3CC[C@]12C; Abu(4-SO3H) = N[C@@H](CCS(=O)(=O)O)C(=O)O; PhLac = O=C(O)[C@@H](O)Cc1ccccc1

Columns and labels:
[1] = biological target: T1, human glucagon receptor (human, UniProt P47871 26-477); test: cell-based or functional assay
[2] = biological target: human glucagon receptor (human) (UniProt P47871); test: cell-based or functional assay
[3] = biological target: human GLP-1 receptor (human) (UniProt P43220); test: cell-based or functional assay
[4] = biological target: T1, human glucagon receptor; test: cell-based or functional assay; remark: listed apart in the source
[5] = biological target: T1, human glucagon receptor; test: SPA competition vs 125I-glucagon, receptor membranes
[6] = biological target: human GLP-1 receptor (human, UniProt P43220 24-463); test: cell-based or functional assay
[7] = biological target: T1, human glucagon receptor; test: cell-based or functional assay; remark: listed apart in the source
[8] = biological target: T1, human glucagon receptor; test: SPA competition vs 125I-glucagon, receptor membranes; remark: listed apart in the source
[9] = biological target: T1, human glucagon receptor; test: cell-based or functional assay; remark: listed apart in the source
[10] = biological target: T1, human glucagon receptor; test: cell-based or functional assay; remark: listed apart in the source
[11] = biological target: T1, human glucagon receptor; test: cell-based or functional assay; remark: listed apart in the source
[12] = biological target: T1, human glucagon receptor; test: SPA competition vs 125I-glucagon, receptor membranes; remark: listed apart in the source
[13] = biological target: human glucagon receptor (human) (UniProt P47871); test: cell-based or functional assay; remark: listed apart in the source
[14] = biological target: human glucagon receptor (human) (UniProt P47871); test: cell-based or functional assay; remark: listed apart in the source
[15] = biological target: human GLP-1 receptor (human) (UniProt P43220); test: cell-based or functional assay; remark: listed apart in the source

T1 sequence (P47871 26-477): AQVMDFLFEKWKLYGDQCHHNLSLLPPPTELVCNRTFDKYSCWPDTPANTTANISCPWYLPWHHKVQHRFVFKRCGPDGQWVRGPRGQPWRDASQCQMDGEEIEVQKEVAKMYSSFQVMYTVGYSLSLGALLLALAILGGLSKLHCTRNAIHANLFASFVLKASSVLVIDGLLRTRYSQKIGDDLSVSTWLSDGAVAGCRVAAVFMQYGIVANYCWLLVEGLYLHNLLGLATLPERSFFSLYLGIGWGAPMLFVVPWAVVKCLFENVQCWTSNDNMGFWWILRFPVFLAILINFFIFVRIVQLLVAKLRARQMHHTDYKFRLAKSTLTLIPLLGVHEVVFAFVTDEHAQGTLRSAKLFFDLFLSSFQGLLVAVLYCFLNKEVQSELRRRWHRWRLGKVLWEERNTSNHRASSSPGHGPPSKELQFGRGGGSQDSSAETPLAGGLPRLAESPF
Chain of human glucagon receptor (human) (P47871 26-477): as above
Chain of human GLP-1 receptor (human) (P43220 24-463): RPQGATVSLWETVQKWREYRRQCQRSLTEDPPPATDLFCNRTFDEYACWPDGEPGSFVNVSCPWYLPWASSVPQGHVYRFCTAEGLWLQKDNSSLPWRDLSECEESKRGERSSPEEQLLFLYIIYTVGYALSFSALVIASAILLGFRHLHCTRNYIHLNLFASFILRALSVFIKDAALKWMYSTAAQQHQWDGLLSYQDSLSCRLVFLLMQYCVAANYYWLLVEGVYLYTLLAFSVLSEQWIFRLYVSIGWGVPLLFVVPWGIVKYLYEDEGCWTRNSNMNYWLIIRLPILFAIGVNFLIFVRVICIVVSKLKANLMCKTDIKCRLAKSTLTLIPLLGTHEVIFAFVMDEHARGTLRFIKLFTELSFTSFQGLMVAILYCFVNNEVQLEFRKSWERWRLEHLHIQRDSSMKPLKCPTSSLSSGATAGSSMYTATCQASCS

For “[d-Cys^5(20kDaPEG), E^9]Glucagon(aa5-29)-NH2 (peptide)”, the IC50 (cAMP, inhibit 0.2 mM Glucagon) [1] was 14800 nM.

In the case of [E9, E16K20(lactam)]G(6-39) (peptide), the Glu IC50 [2] is reported as 42 nM, the Glucagon IC50 [2] is reported as 42 nM and the Glucagon antagonism IC50 (inhibit 0.2-0.8 nM glucagon) [2] is reported as 42 nM. For the same molecule, the GLP-1 EC50 [3] was 36 nM and the GLP-1 agonism EC50 [3] was 36.4 nM.

In the case of [E9, E16, K20] G(6-39) (peptide), the GLP-1 agonism EC50 [3] is reported as 1040 nM.

SQGTFTS[Abu(4-SO3H)]YSKYLDSRRAQDFVQWLMNT-NH2 [[hCys^9(SO3H)]Glucagon(aa2-29)-NH2] was tested, and the “cAMP IC50” value [4] was 147 nM and the IC50 [5] was 13.2 nM.

B1: K10-chol G(6-29) (peptide)
peptide: [PhLac]TSDK(COCH2CH2S‑Chol)SKYLDERRAKDFVQWLMDT-NH2
modifications: lactam 11-15; N-terminus assumed
SMILES: CSCC[C@H](NC(=O)[C@H](CC(C)C)NC(=O)[C@H](Cc1c[nH]c2ccccc12)NC(=O)[C@H](CCC(N)=O)NC(=O)[C@@H](NC(=O)[C@H](Cc1ccccc1)NC(=O)[C@H](CC(=O)O)NC(=O)[C@@H]1CCCCNC(=O)CC[C@H](NC(=O)[C@H](CC(=O)O)NC(=O)[C@H](CC(C)C)NC(=O)[C@H](Cc2ccc(O)cc2)NC(=O)[C@H](CCCCN)NC(=O)[C@H](CO)NC(=O)[C@H](CCCCNC(=O)CCS[C@H]2CC[C@@]3(C)C(=CC[C@H]4[C@@H]5CC[C@H]([C@H](C)CCCC(C)C)[C@@]5(C)CC[C@@H]43)C2)NC(=O)[C@H](CC(=O)O)NC(=O)[C@H](CO)NC(=O)[C@@H](NC(=O)[C@@H](O)Cc2ccccc2)[C@@H](C)O)C(=O)N[C@@H](CCCNC(=N)N)C(=O)N[C@@H](CCCNC(=N)N)C(=O)N[C@@H](C)C(=O)N1)C(C)C)C(=O)N[C@@H](CC(=O)O)C(=O)N[C@H](C(N)=O)[C@@H](C)O
In the case of B1, the “GLP-1 agonism EC50” value [6] is reported as 35.2 nM and the “Glucagon antagonism IC50 (inhibit 0.4 nM glucagon)” value [7] is reported as 271 nM.

B2: [hCys^9(SO3H)]Glucagon(aa6-29)-NH2 (peptide)
peptide: FTS[Abu(4-SO3H)]YSKYLDSRRAQDFVQWLMNT-NH2
notes: also called [hCys(SO3)9]Glucagon(aa6-29)-NH2
In the case of B2, the IC50 [8] is reported as 59.1 nM, the “cAMP IC50” value [9] is reported as 133 nM and the “cAMP pA2” value [9] is reported as 7.16. The “cAMP IC50” value [4] was 133 nM, the “cAMP pA2” value [4] was 7.16 and the IC50 [5] was 59.1 nM.

B3: [PLA^6, D^9, D^28] Glucagon(aa6-29)-NH2 (peptide)
peptide: FTSDYSKYLDSRRAQDFVQWLMDT
modifications: PLA at position 6; C-terminal amide
notes: also called [PLA6, D9, D28]Glucagon(6-29)
With B3 the “Glucagon antagonism IC50 (inhibit 0.5nM G)” value [10] was 9.03 nM, the “IC50 (cAMP, inhibit 0.1 nM Glucagon)” value [11] was 1.32 nM and the IC50 [12] was 9 nM.

B4: [hCys^9(SO3H)]Glucagon(aa5-29)-NH2 (peptide)
peptide: TFTS[Abu(4-SO3H)]YSKYLDSRRAQDFVQWLMNT-NH2
modifications: N-terminus assumed
SMILES: CSCC[C@H](NC(=O)[C@H](CC(C)C)NC(=O)[C@H](Cc1c[nH]c2ccccc12)NC(=O)[C@H](CCC(N)=O)NC(=O)[C@@H](NC(=O)[C@H](Cc1ccccc1)NC(=O)[C@H](CC(=O)O)NC(=O)[C@H](CCC(N)=O)NC(=O)[C@H](C)NC(=O)[C@H](CCCNC(=N)N)NC(=O)[C@H](CCCNC(=N)N)NC(=O)[C@H](CO)NC(=O)[C@H](CC(=O)O)NC(=O)[C@H](CC(C)C)NC(=O)[C@H](Cc1ccc(O)cc1)NC(=O)[C@H](CCCCN)NC(=O)[C@H](CO)NC(=O)[C@H](Cc1ccc(O)cc1)NC(=O)[C@H](CCS(=O)(=O)O)NC(=O)[C@H](CO)NC(=O)[C@@H](NC(=O)[C@H](Cc1ccccc1)NC(=O)[C@@H](N)[C@@H](C)O)[C@@H](C)O)C(C)C)C(=O)N[C@@H](CC(N)=O)C(=O)N[C@H](C(N)=O)[C@@H](C)O
With B4 the “cAMP IC50” value [4] was 98.3 nM, the “cAMP pA2” value [4] was 6.77 and the IC50 [5] was 33.9 nM.

B5: [hCys^9(SO3H)]Glucagon(aa4-29)-NH2 (peptide)
peptide: GTFTS[Abu(4-SO3H)]YSKYLDSRRAQDFVQWLMNT-NH2
modifications: N-terminus assumed
SMILES: CSCC[C@H](NC(=O)[C@H](CC(C)C)NC(=O)[C@H](Cc1c[nH]c2ccccc12)NC(=O)[C@H](CCC(N)=O)NC(=O)[C@@H](NC(=O)[C@H](Cc1ccccc1)NC(=O)[C@H](CC(=O)O)NC(=O)[C@H](CCC(N)=O)NC(=O)[C@H](C)NC(=O)[C@H](CCCNC(=N)N)NC(=O)[C@H](CCCNC(=N)N)NC(=O)[C@H](CO)NC(=O)[C@H](CC(=O)O)NC(=O)[C@H](CC(C)C)NC(=O)[C@H](Cc1ccc(O)cc1)NC(=O)[C@H](CCCCN)NC(=O)[C@H](CO)NC(=O)[C@H](Cc1ccc(O)cc1)NC(=O)[C@H](CCS(=O)(=O)O)NC(=O)[C@H](CO)NC(=O)[C@@H](NC(=O)[C@H](Cc1ccccc1)NC(=O)[C@@H](NC(=O)CN)[C@@H](C)O)[C@@H](C)O)C(C)C)C(=O)N[C@@H](CC(N)=O)C(=O)N[C@H](C(N)=O)[C@@H](C)O
For B5, the “cAMP IC50” value [4] was 68.4 nM, the “cAMP pA2” value [4] was 7.22 and the IC50 [5] was 41.5 nM.

For FTSEYSKYLDERRAQDFVQWLMNTGPSSGAPPPS (C-terminal amide) [[E9, E16]G(6-39)], the Glucagon IC50 [13] was 762 nM, the Glu IC50 [14] was 762 nM and the Glucagon antagonism IC50 (inhibit 0.2-0.8 nM glucagon) [14] was 762 nM.

FTSEYSKYLDERRAQDFVQWLMNTGPSSGAPPPS (lactam bridge Lys12-Glu16 (native glucagon numbering); C-terminal amide) [E9, K12E16(lactam) glucagon(6-39)] gave a Glucagon IC50 [13] of 2010 nM, a Glu IC50 [14] of 2010 nM and a GLP-1 EC50 [15] of 63 nM.

B6: K30-chol G(6-30) (peptide)
peptide: [PhLac]TSDYSKYLDERRAKDFVQWLMDTK(COCH2CH2S‑Chol)-NH2
modifications: lactam 11-15; N-terminus assumed
SMILES: CSCC[C@H](NC(=O)[C@H](CC(C)C)NC(=O)[C@H](Cc1c[nH]c2ccccc12)NC(=O)[C@H](CCC(N)=O)NC(=O)[C@@H](NC(=O)[C@H](Cc1ccccc1)NC(=O)[C@H](CC(=O)O)NC(=O)[C@@H]1CCCCNC(=O)CC[C@H](NC(=O)[C@H](CC(=O)O)NC(=O)[C@H](CC(C)C)NC(=O)[C@H](Cc2ccc(O)cc2)NC(=O)[C@H](CCCCN)NC(=O)[C@H](CO)NC(=O)[C@H](Cc2ccc(O)cc2)NC(=O)[C@H](CC(=O)O)NC(=O)[C@H](CO)NC(=O)[C@@H](NC(=O)[C@@H](O)Cc2ccccc2)[C@@H](C)O)C(=O)N[C@@H](CCCNC(=N)N)C(=O)N[C@@H](CCCNC(=N)N)C(=O)N[C@@H](C)C(=O)N1)C(C)C)C(=O)N[C@@H](CC(=O)O)C(=O)N[C@H](C(=O)N[C@@H](CCCCNC(=O)CCS[C@H]1CC[C@@]2(C)C(=CC[C@H]3[C@@H]4CC[C@H]([C@H](C)CCCC(C)C)[C@@]4(C)CC[C@@H]32)C1)C(N)=O)[C@@H](C)O
With B6 the “GLP-1 agonism EC50” value [6] was 14.4 nM and the “Glucagon antagonism IC50 (inhibit 0.4 nM glucagon)” value [7] was 575 nM.
